The source of these data is PMC13100509, “A milestone in C4 carbon concentration mechanism evolution: structural remodeling of NADP-malic enzyme in Poaceae” (Molecular Biology and Evolution, 2026).

The target in series [1] is C4 + 15 variant of maize C4-NADP-ME (maize (Zea mays)) (UniProt P16243). Briefly: native gel or EMSA; native PAGE (6% or 7%) of purified recombinant proteins, 100 V, 4 °C; Coomassie staining or in-gel NADP-ME activity assay; oligomeric state from mobility against native markers. (In general: In EMSA bound probe runs differently from free probe, usually more slowly.)
The target of series [2] is maize Cyt2-NADP-ME, recombinant wild type (maize (Zea mays)). The description is as above.
In series [3] the target is nonC4R171T mutant of maize nonC4-NADP-ME (maize (Zea mays)). The series is described as above.
Series [4] has as its target nonC4Δ15 variant of maize nonC4-NADP-ME (maize (Zea mays)). The series is described as above.
The target in series [5] is plastidic nonC4-NADP-ME from maize extracts (maize (endogenous in maize etiolated leaves and roots)). Briefly: native gel or EMSA; native PAGE (7%) of maize extracts of etiolated leaves and roots; in-gel NADP-ME activity assay, active bands excised and identified by mass spectrometry; mobility compared with the recombinant proteins.
Series [6] deals with the molecule itself. Briefly: native gel or EMSA; native PAGE (6% or 7%) of purified recombinant proteins, 100 V, 4 °C; Coomassie staining or in-gel NADP-ME activity assay; oligomeric state from mobility against native markers.
Substrate in the series “purified protein”: O=C(O)C[C@H](O)C(=O)O
Briefly: purified protein. The format is biochemical, Zea mays. To be noted: pH 8.0, 25 °C, 0.5 mM NADP, 10 mM MgCl2.

Where “and” joins values, the source holds several entries; their conditions need not be identical. Identical values can stand only once.

Regarding “C4 + 15 variant of maize C4-NADP-ME (from UniProt P16243 63-636) (enzyme)”, the stoichiometry N (as a rule, a count of units in the complex or per binding partner) in series [1] was found to be 4. “maize Cyt2-NADP-ME, recombinant wild type (enzyme)”: in series [2], the stoichiometry N worked out at 4. As for “nonC4R171T mutant of maize nonC4-NADP-ME (enzyme)”, the stoichiometry N in series [3] was 2 and 4. As for “nonC4Δ15 variant of maize nonC4-NADP-ME (enzyme)”, the stoichiometry N in series [4] was determined as 2.

Consider “plastidic nonC4-NADP-ME from maize extracts (enzyme)”, for which the stoichiometry N in series [5] stood at 2.

B1: C4NnC4GR variant of maize C4-NADP-ME (enzyme)
chain: AAEMEQEEAEVAAAAAGVVVEDHYGEDSASEELPVMPWATSVASGYTLLRDPHHNKGLAFTEEERDGHYLRGLLPPAVLSQELQIKKFMNTLRQYQTPLQRYIAMMNLQETDERLFYKLLIDNVVELLPFVYTPTVGEACQKYGSIFRRPQGLYVSLKDKGKVLEVLRNWPHRNIQVICVTDGERILGLGDLGCQGMGIPVGKLALYTALGGVDPSVCLPITIDVGTNNEKLLNDEFYIGLRQKRATGEEYDELIEEFMSAVKQFYGEKVLIQFEDFANHNAFDLLEKYSKSHLVFNDDIQGTASVVLAGLLAALKMVGGTLAEQTYLFLGAGEAGTGIAELIALEISKQTNAPIEECRKKVWLVDSKGLIVDSRKGSLQPFKKPWAHEHEPLKTLYDAVQSIKPTVLIGTSGVGRTFTKEIIEAMSSFNERPIIFSLSNPTSHSECTAEQAYTWSQGRSIFASGSPFAPVEYEGKTFVPGQSNNAYIFPGLGLGLVISGAVRVHEDMLLAASKALADQATQDNFEKGSIFPPFTSIRKISAHIAAAVAAKAYELGLATRLPPPSDLVKYAENCMYTPVYRNYR
On to B1, for which, in series [6], the “stoichiometry N” value came out at 2.

B2: C4-NADP-ME (Zea mays) (protein)
chain: AMVSNAETETEKEQEEAAAASEELPVMPWATSVASGYTLLRDPHHNKGLAFTEEERDGHYLRGLLPPAVLSQELQIKKFMNTLRQYQTPLQRYIAMMNLQETDERLFYKLLIDNVVELLPFVYTPTVGEACQKYGSIFGRPQGLYVSLKDKGKVLEVLRNWPHRNIQVICVTDGERILGLGDLGCQGMGIPVGKLALYTALGGVDPSVCLPITIDVGTNNEFLLNDEFYIGLRQKRATGEEYDELIEEFMSAVKQFYGEKVLIQFEDFANHNAFDLLEKYSKSHLVFNDDIQGTASVVLAGLLAALKMVGGTLAEQTYLFLGAGEAGTGIAELIALEISKQTNAPIEECRKKVWLVDSKGLIVDSRKGSLQPFKKPWAHEHEPLKTLYDAVQSIKPTVLIGTSGVGRTFTKEIIEAMSSFNERPIIFSLSNPTSHSECTAEQAYTWSQGRSIFASGSPFAPVEYEGKTFVPGQSNNAYIFPGLGLGLVISGAVRVHEDMLLAASKALADQATQDNFEKGSIFPPFTSIRKISAHIAAAVAGKAYELGLATRLPPPSDLVKYAENCMYTPVYRNYR
notes: mature protein without transit peptide, E. coli, pET16b His-tag (Factor Xa site); homotetramer about 250 kDa
As to B2, in “purified protein”, the Michaelis constant (Km) – broadly, the substrate concentration at which the rate is half of its maximum – came out at 170 ± 20 µM; the kcat – broadly, the number of substrate molecules converted per active site and unit of time at saturation – stood at 67.5 ± 1.4 s⁻¹.

B3: C4-NADP-ME (Zea mays; G200R) (protein)
chain: AMVSNAETETEKEQEEAAAASEELPVMPWATSVASGYTLLRDPHHNKGLAFTEEERDGHYLRGLLPPAVLSQELQIKKFMNTLRQYQTPLQRYIAMMNLQETDERLFYKLLIDNVVELLPFVYTPTVGEACQKYGSIFRRPQGLYVSLKDKGKVLEVLRNWPHRNIQVICVTDGERILGLGDLGCQGMGIPVGKLALYTALGGVDPSVCLPITIDVGTNNEFLLNDEFYIGLRQKRATGEEYDELIEEFMSAVKQFYGEKVLIQFEDFANHNAFDLLEKYSKSHLVFNDDIQGTASVVLAGLLAALKMVGGTLAEQTYLFLGAGEAGTGIAELIALEISKQTNAPIEECRKKVWLVDSKGLIVDSRKGSLQPFKKPWAHEHEPLKTLYDAVQSIKPTVLIGTSGVGRTFTKEIIEAMSSFNERPIIFSLSNPTSHSECTAEQAYTWSQGRSIFASGSPFAPVEYEGKTFVPGQSNNAYIFPGLGLGLVISGAVRVHEDMLLAASKALADQATQDNFEKGSIFPPFTSIRKISAHIAAAVAGKAYELGLATRLPPPSDLVKYAENCMYTPVYRNYR
notes: as for B2
Regarding B3, in the series “purified protein”, the Michaelis-Menten constant (Km) was 2450 ± 450 µM and the kcat was 21.6 ± 0.8 s⁻¹.

B4: C4N15GR variant of maize C4-NADP-ME (enzyme)
chain: AAGVVVEDHYGEDSASEELPVMPWATSVASGYTLLRDPHHNKGLAFTEEERDGHYLRGLLPPAVLSQELQIKKFMNTLRQYQTPLQRYIAMMNLQETDERLFYKLLIDNVVELLPFVYTPTVGEACQKYGSIFRRPQGLYVSLKDKGKVLEVLRNWPHRNIQVICVTDGERILGLGDLGCQGMGIPVGKLALYTALGGVDPSVCLPITIDVGTNNEKLLNDEFYIGLRQKRATGEEYDELIEEFMSAVKQFYGEKVLIQFEDFANHNAFDLLEKYSKSHLVFNDDIQGTASVVLAGLLAALKMVGGTLAEQTYLFLGAGEAGTGIAELIALEISKQTNAPIEECRKKVWLVDSKGLIVDSRKGSLQPFKKPWAHEHEPLKTLYDAVQSIKPTVLIGTSGVGRTFTKEIIEAMSSFNERPIIFSLSNPTSHSECTAEQAYTWSQGRSIFASGSPFAPVEYEGKTFVPGQSNNAYIFPGLGLGLVISGAVRVHEDMLLAASKALADQATQDNFEKGSIFPPFTSIRKISAHIAAAVAAKAYELGLATRLPPPSDLVKYAENCMYTPVYRNYR
Turning to B4, in series [6], the “stoichiometry N” value amounted to 2.

B5: C4T163R mutant of maize C4-NADP-ME (enzyme, maize (Zea mays), UniProt P16243 63-636, looked up)
chain: MVSNAETETEKEQEEAAAASEELPVMPWATSVASGYTLLRDPHHNKGLAFTEEERDGHYLRGLLPPAVLSQELQIKKFMNTLRQYQTPLQRYIAMMNLQERDERLFYKLLIDNVVELLPFVYTPTVGEACQKYGSIFGRPQGLYVSLKDKGKVLEVLRNWPHRNIQVICVTDGERILGLGDLGCQGMGIPVGKLALYTALGGVDPSVCLPITIDVGTNNEFLLNDEFYIGLRQKRATGEEYDELIEEFMSAVKQFYGEKVLIQFEDFANHNAFDLLEKYSKSHLVFNDDIQGTASVVLAGLLAALKMVGGTLAEQTYLFLGAGEAGTGIAELIALEISKQTNAPIEECRKKVWLVDSKGLIVDSRKGSLQPFKKPWAHEHEPLKTLYDAVQSIKPTVLIGTSGVGRTFTKEIIEAMSSFNERPIIFSLSNPTSHSECTAEQAYTWSQGRSIFASGSPFAPVEYEGKTFVPGQSNNAYIFPGLGLGLVISGAVRVHEDMLLAASKALADQATQDNFEKGSIFPPFTSIRKISAHIAAAVAGKAYELGLATRLPPPSDLVKYAENCMYTPVYRNYR
notes: C4-NADP-malic enzyme (ZmC4-NADP-ME), plastidic C4 isoform of maize; source: E. coli Rosetta2 (DE3) or ArcticExpress (DE3), purified (Ni-NTA)
Consider B5, for which the “stoichiometry N” value in series [6] is 2 and 4.

B6: C4G200R mutant of maize C4-NADP-ME (enzyme, maize (Zea mays), UniProt P16243 63-636, looked up)
chain: MVSNAETETEKEQEEAAAASEELPVMPWATSVASGYTLLRDPHHNKGLAFTEEERDGHYLRGLLPPAVLSQELQIKKFMNTLRQYQTPLQRYIAMMNLQETDERLFYKLLIDNVVELLPFVYTPTVGEACQKYGSIFRRPQGLYVSLKDKGKVLEVLRNWPHRNIQVICVTDGERILGLGDLGCQGMGIPVGKLALYTALGGVDPSVCLPITIDVGTNNEFLLNDEFYIGLRQKRATGEEYDELIEEFMSAVKQFYGEKVLIQFEDFANHNAFDLLEKYSKSHLVFNDDIQGTASVVLAGLLAALKMVGGTLAEQTYLFLGAGEAGTGIAELIALEISKQTNAPIEECRKKVWLVDSKGLIVDSRKGSLQPFKKPWAHEHEPLKTLYDAVQSIKPTVLIGTSGVGRTFTKEIIEAMSSFNERPIIFSLSNPTSHSECTAEQAYTWSQGRSIFASGSPFAPVEYEGKTFVPGQSNNAYIFPGLGLGLVISGAVRVHEDMLLAASKALADQATQDNFEKGSIFPPFTSIRKISAHIAAAVAGKAYELGLATRLPPPSDLVKYAENCMYTPVYRNYR
notes: C4-NADP-malic enzyme (ZmC4-NADP-ME), plastidic C4 isoform of maize; also called C4-NADP-ME-G200R; source: E. coli Rosetta2 (DE3) or ArcticExpress (DE3), purified (Ni-NTA)
As for B6, in series [6], the “stoichiometry N” value was 2.

B7: C4D164N mutant of maize C4-NADP-ME (enzyme, maize (Zea mays), UniProt P16243 63-636, looked up)
chain: MVSNAETETEKEQEEAAAASEELPVMPWATSVASGYTLLRDPHHNKGLAFTEEERDGHYLRGLLPPAVLSQELQIKKFMNTLRQYQTPLQRYIAMMNLQETNERLFYKLLIDNVVELLPFVYTPTVGEACQKYGSIFGRPQGLYVSLKDKGKVLEVLRNWPHRNIQVICVTDGERILGLGDLGCQGMGIPVGKLALYTALGGVDPSVCLPITIDVGTNNEFLLNDEFYIGLRQKRATGEEYDELIEEFMSAVKQFYGEKVLIQFEDFANHNAFDLLEKYSKSHLVFNDDIQGTASVVLAGLLAALKMVGGTLAEQTYLFLGAGEAGTGIAELIALEISKQTNAPIEECRKKVWLVDSKGLIVDSRKGSLQPFKKPWAHEHEPLKTLYDAVQSIKPTVLIGTSGVGRTFTKEIIEAMSSFNERPIIFSLSNPTSHSECTAEQAYTWSQGRSIFASGSPFAPVEYEGKTFVPGQSNNAYIFPGLGLGLVISGAVRVHEDMLLAASKALADQATQDNFEKGSIFPPFTSIRKISAHIAAAVAGKAYELGLATRLPPPSDLVKYAENCMYTPVYRNYR
notes: as for B5
In the case of B7, the “stoichiometry N” value in series [6] was 2 and 4.

B8: C4Y632F mutant of maize C4-NADP-ME (enzyme, maize (Zea mays), UniProt P16243 63-636, looked up)
chain: MVSNAETETEKEQEEAAAASEELPVMPWATSVASGYTLLRDPHHNKGLAFTEEERDGHYLRGLLPPAVLSQELQIKKFMNTLRQYQTPLQRYIAMMNLQETDERLFYKLLIDNVVELLPFVYTPTVGEACQKYGSIFGRPQGLYVSLKDKGKVLEVLRNWPHRNIQVICVTDGERILGLGDLGCQGMGIPVGKLALYTALGGVDPSVCLPITIDVGTNNEFLLNDEFYIGLRQKRATGEEYDELIEEFMSAVKQFYGEKVLIQFEDFANHNAFDLLEKYSKSHLVFNDDIQGTASVVLAGLLAALKMVGGTLAEQTYLFLGAGEAGTGIAELIALEISKQTNAPIEECRKKVWLVDSKGLIVDSRKGSLQPFKKPWAHEHEPLKTLYDAVQSIKPTVLIGTSGVGRTFTKEIIEAMSSFNERPIIFSLSNPTSHSECTAEQAYTWSQGRSIFASGSPFAPVEYEGKTFVPGQSNNAYIFPGLGLGLVISGAVRVHEDMLLAASKALADQATQDNFEKGSIFPPFTSIRKISAHIAAAVAGKAYELGLATRLPPPSDLVKYAENCMYTPVFRNYR
notes: as for B5
As for B8, the binding result in series [6] was “binds”.
